How the values were obtained:
[1] = system: Aldo-keto reductase family 1 member C1 (Homo sapiens), Q04828 [UNDEFINED MUTATION]; assay: Ratio of Km for human recombinant AKR1C1 Leu308Ala mutant to Km for human recombinant wild type AKR1C1
[2] = system: Aldo-keto reductase family 1 member C1 (Homo sapiens), Q04828 [UNDEFINED MUTATION]; assay: Ratio of Kcat/Km for human recombinant AKR1C1 Leu308Val mutant to Kcat/Km for human recombinant wild type AKR1C1
[3] = system: Aldo-keto reductase family 1 member C1 (Homo sapiens), Q04828 [UNDEFINED MUTATION]; assay: Ratio of Kcat/Km for human recombinant AKR1C1 Leu308Ala mutant to Kcat/Km for human recombinant wild type AKR1C1
[4] = system: Aldo-keto reductase family 1 member C1 (Homo sapiens), Q04828 [UNDEFINED MUTATION]; assay: Ratio of Km for human recombinant AKR1C1 Leu308Val mutant to Km for human recombinant wild type AKR1C1
[5] = target: T1, Aldo-keto reductase family 1 member C1 (Homo sapiens) (UniProt Q04828); assay: Ratio of kcat/km for human recombinant wild type AKR1C1 expressed in Escherichia coli JM109 after 15 mins
[6] = target: T1, Aldo-keto reductase family 1 member C1 …; assay: Activity at human recombinant wild type AKR1C1 expressed in Escherichia coli JM109 after 15 mins
[7] = substrate: C[C@@H](O)[C@H]1CC[C@H]2[C@@H]3CC[C@H]4C[C@H](O)CC[C@]4(C)[C@H]3CC[C@]12C; assay: (§1) Ratio of kcat/km for human recombinant wild type AKR1C1 expressed in Escherichia coli JM109 after 15 mins
[8] = substrate: CC(=O)[C@H]1CC[C@H]2[C@@H]3CC[C@@H]4C[C@H](O)CC[C@]4(C)[C@H]3CC[C@]12C; assay: as §1
[9] = substrate: C[C@@H](O)[C@H]1CC[C@H]2[C@@H]3CC[C@H]4C[C@H](O)CC[C@]4(C)[C@H]3CC[C@]12C; assay: (§2) Activity at human recombinant wild type AKR1C1 expressed in Escherichia coli JM109 after 15 mins
[10] = substrate: CC(=O)[C@H]1CC[C@H]2[C@@H]3CC[C@@H]4C[C@H](O)CC[C@]4(C)[C@H]3CC[C@]12C; assay: as §2
[11] = substrate: C[C@@H](O)[C@H]1CC[C@H]2[C@@H]3CC[C@H]4C[C@H](O)CC[C@]4(C)[C@H]3CC[C@]12C; assay: (§3) Ratio of kcat/km for human recombinant AKR1C1 Leu308Val mutant expressed in Escherichia coli JM109 after 15 mins
[12] = substrate: CC(=O)[C@H]1CC[C@H]2[C@@H]3CC[C@@H]4C[C@H](O)CC[C@]4(C)[C@H]3CC[C@]12C; assay: as §3
[13] = substrate: C[C@@H](O)[C@H]1CC[C@H]2[C@@H]3CC[C@H]4C[C@H](O)CC[C@]4(C)[C@H]3CC[C@]12C; assay: (§4) Activity at human recombinant AKR1C1 Leu308Val mutant expressed in Escherichia coli JM109 after 15 mins
[14] = substrate: CC(=O)[C@H]1CC[C@H]2[C@@H]3CC[C@@H]4C[C@H](O)CC[C@]4(C)[C@H]3CC[C@]12C; assay: as §4

O[C@H]1CCCc2ccccc21
Ratio [1]: 67
Ratio [2]: 0.2
Ratio [3]: 0.01
Ratio [4]: 2

C[C@@H](O)[C@H]1CC[C@H]2[C@@H]3CC[C@H]4C[C@H](O)CC[C@]4(C)[C@H]3CC[C@]12C
Ratio [2]: 7
Ratio [4]: 0.4

CC(=O)[C@H]1CC[C@H]2[C@@H]3CC[C@@H]4C[C@H](O)CC[C@]4(C)[C@H]3CC[C@]12C
Ratio [2]: 0.2
Ratio [4]: 2

B1: Aldo-keto reductase family 1 member C1 (Homo sapiens), Q04828 (protein)
chain: MDSKYQCVKLNDGHFMPVLGFGTYAPAEVPKSKALEATKLAIEAGFRHIDSAHLYNNEEQVGLAIRSKIADGSVKREDIFYTSKLWCNSHRPELVRPALERSLKNLQLDYVDLYLIHFPVSVKPGEEVIPKDENGKILFDTVDLCATWEAVEKCKDAGLAKSIGVSNFNRRQLEMILNKPGLKYKPVCNQVECHPYFNQRKLLDFCKSKDIVLVAYSALGSHREEPWVDPNSPVLLEDPVLCALAKKHKRTPALIALRYQLQRGVVVLAKSYNEQRIRQNVQVFEFQLTSEEMKAIDGLNRNVRYLTLDIFAGPPNYPFSDEY
kcat/Km [5]: 3.7 µM⁻¹ min⁻¹
Km [6]: 7 µM⁻¹
kcat/Km [7]: 2.4 µM⁻¹ min⁻¹
kcat/Km [8]: 3.7 µM⁻¹ min⁻¹
Km [9]: 0.9 µM⁻¹
Km [10]: 7 µM⁻¹

B2: Aldo-keto reductase family 1 member C1 (Homo sapiens), Q04828 L308V (protein)
chain: MDSKYQCVKLNDGHFMPVLGFGTYAPAEVPKSKALEATKLAIEAGFRHIDSAHLYNNEEQVGLAIRSKIADGSVKREDIFYTSKLWCNSHRPELVRPALERSLKNLQLDYVDLYLIHFPVSVKPGEEVIPKDENGKILFDTVDLCATWEAVEKCKDAGLAKSIGVSNFNRRQLEMILNKPGLKYKPVCNQVECHPYFNQRKLLDFCKSKDIVLVAYSALGSHREEPWVDPNSPVLLEDPVLCALAKKHKRTPALIALRYQLQRGVVVLAKSYNEQRIRQNVQVFEFQLTSEEMKAIDGLNRNVRYLTVDIFAGPPNYPFSDEY
kcat/Km [11]: 16 µM⁻¹ min⁻¹
kcat/Km [12]: 0.8 µM⁻¹ min⁻¹
Km [13]: 0.4 µM⁻¹
Km [14]: 16 µM⁻¹

From ChEMBL document CHEMBL1221251, “Factorizing the role of a critical leucine residue in the binding of substrate to human 20alpha-hydroxysteroid dehydrogenase (AKR1C1): molecular modeling and kinetic studies of the Leu308Val mutant enzyme” (Bioorg Med Chem Lett, 2010)
